Source: patent US20170073386A1 (AstraZeneca / MedImmune, published 2017)

Assays:
[1] = molecular target: T1, human GITR-Fc (human, UniProt Q9Y5U5 26-162, conjugated with europium cryptate in the HTRF assays); experiment: HTRF direct binding, Eu cryptate hGITR-Fc and anti-FLAG XL665, one site saturation fit
T1 construct: also called hGITR-Fc; hGITRFc; not shown: Fc domain of hIgG1
T1 sequence: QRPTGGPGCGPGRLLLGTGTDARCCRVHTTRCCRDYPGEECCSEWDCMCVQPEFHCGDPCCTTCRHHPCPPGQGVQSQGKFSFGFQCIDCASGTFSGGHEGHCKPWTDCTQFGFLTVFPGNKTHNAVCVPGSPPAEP
Protocol: The hGITRL FP molecules were titrated into an HTRF assay in which binding of the hGITRL FP to hGITR-Fc was measured. The human hGITR Fc was conjugated with europium cryptate and an anti-FLAG antibody conjugated with XL665 was used to detect the hGITRL FP protein. KD values were determined by curve fitting the analyzed data to a one site saturation binding equation with Prism 5.01 software (GraphPad).

[2] = molecular target: T1, human GITR-Fc; experiment: HTRF competition: titrated FP against binding of GITRL-HA (anti-HA XL665) to europium cryptate hGITR-Fc
Protocol: (§1) The effect of the GITRL FP molecules on human GITRL binding to human GITR was determined using a Homogeneous Time Resolved Fluorescence (HTRF) assay.
(§2) The GITRL FP molecules were titrated into an HTRF assay in which binding of GITRL-HA (hemagglutinin tag) to GITR-Fc was measured. The human GITR Fc was conjugated with europium cryptate and an anti-HA antibody conjugated with XL665 was used to detect the GITRL-HA protein. IC₅₀ values were determined by curve fitting the analyzed data to a four parameter logistic equation with Prism 5.01 software (GraphPad).

[3] = molecular target: T1, human GITR-Fc; experiment: as above; remark: listed apart in the source
Protocol: as §1, §2

[4] = molecular target: T1, human GITR-Fc; experiment: HTRF competition; competitor GITRL-HA on GITR-Fc
Protocol: The effect of the hexameric GITRL FP molecules on human GITRL binding to human GITR was determined using a Homogeneous Time Resolved Fluorescence (HTRF) assay.
as §2, with “The hexameric GITRL FP” for “The GITRL FP”

[5] = molecular target: T2, human GITR expressed on cells (human, UniProt Q9Y5U5 26-241); experiment: cell-based or functional assay
T2 sequence: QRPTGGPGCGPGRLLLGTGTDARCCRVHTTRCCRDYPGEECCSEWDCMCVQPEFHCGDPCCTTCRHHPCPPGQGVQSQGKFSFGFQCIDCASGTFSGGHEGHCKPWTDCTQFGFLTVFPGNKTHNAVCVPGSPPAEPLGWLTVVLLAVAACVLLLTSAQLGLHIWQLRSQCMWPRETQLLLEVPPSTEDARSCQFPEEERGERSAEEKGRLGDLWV

[6] = molecular target: T3, recombinant mouse GITR-Fc (mouse, UniProt O35714 20-153, limits assumed); experiment: ELISA, coated mouse GITR-Fc, HRP anti-mouse Fc
T3 construct: Bought reagent; construct not described; not shown: Fc
T3 sequence (looked up): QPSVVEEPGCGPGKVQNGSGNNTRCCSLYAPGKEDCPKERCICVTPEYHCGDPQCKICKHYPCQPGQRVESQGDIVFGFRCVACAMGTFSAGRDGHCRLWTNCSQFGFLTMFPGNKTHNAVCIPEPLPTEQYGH
Protocol: (§3) Recombinant mouse GITR-Fc and OX40-Fc (R&D Systems) glycoproteins were coated overnight at 1 μg/mL in PBS onto 96-well plates (Greiner). Plates were washed with PBST (PBS+0.01% Tween-20), blocked for 1 hour at room temperature with PBS containing 1% (w/v) BSA, and washed in PBST again. Twenty-five microlitres of 1 μg/mL mouse GITRL or OX40L FPs diluted in assay buffer [PBS+1% bovine serum albumin (BSA)] was added to wells, and plates were incubated for 2 hours at room temperature. After 3 washes, 25 μL of 1 μg/mL horseradish peroxidase-conjugated anti-mouse Fc antibody (Sigma) diluted in assay buffer was added to each well, and plates were incubated for 1 hour. After incubation, plates were washed 3 times in PBST, 25 μL of tetramethylbenzidine substrate solution (KPL) was added to each well, and plates incubated for 5 minutes. After incubation 15 μL of 0.5 M sulphuric acid stop solution was added to all wells. The optical density at 450 nm was measured using an EnVision plate reader (PerkinElmer).

[7] = molecular target: T4, recombinant mouse OX40-Fc (mouse, UniProt P47741 20-211, limits assumed); experiment: ELISA, coated mouse OX40-Fc, FP at 1 ug/mL, HRP anti-mouse Fc
T4 construct: Bought reagent; construct not described; not shown: Fc
T4 sequence (looked up): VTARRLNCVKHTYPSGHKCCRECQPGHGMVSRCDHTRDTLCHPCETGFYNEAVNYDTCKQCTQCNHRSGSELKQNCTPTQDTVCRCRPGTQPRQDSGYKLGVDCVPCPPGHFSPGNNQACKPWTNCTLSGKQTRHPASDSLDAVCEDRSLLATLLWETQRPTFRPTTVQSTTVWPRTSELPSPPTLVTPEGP
Protocol: as §3

B1: hGITRL FP wt (Fc fusion)
chain: QLETAKEPCMAKFGPLPSKWQMASSEPPCVNKVSDWKLEILQNGLYLIYGQVAPNANYNDVAPFEVRLYKNKDMIQTLTNKSKIQNVGGTYELHVGDTIDLIFNSEHQVLKNNTYWGIILLANPQFIS
notes: not shown: detection with anti-FLAG antibody implies a FLAG e
B1 showed a Kd [1] of 1.23 nM, an IC50 [2] of 0.631 nM and an IC50 [3] of 0.696 nM.

B2: hGITRL FP N161D (Fc fusion)
chain: QLETAKEPCMAKFGPLPSKWQMASSEPPCVNKVSDWKLEILQNGLYLIYGQVAPNANYNDVAPFEVRLYKNKDMIQTLTNKSKIQNVGGTYELHVGDTIDLIFNSEHQVLKDNTYWGIILLANPQFIS
notes: as for B1
Binder B2 has a Kd [1] of 1.08 nM and an IC50 [3] of 0.63 nM.

B3: hexameric GITRL FP (GCN4 pII) (Fc fusion, not shown: a dimerising Fc or GST; small tags and cut ends)
chain (part 1 of 2): not shown
chain (part 2 of 2): LQLETAKEPCMAKFGPLPSKWQMASSEPPCVNKVSDWKLEILQNGLYLIYGQVAPNANYNDVAPFEVRLYKNKDMIQTLTNKSKIQNVGGTYELHVGDTIDLIFNSEHQVLKNNTYWGIILLANPQFIS
In the case of B3, the IC50 [4] is reported as 1.06 nM and the “EC50 (nM), human GITR transfected NF-κB luciferase gene reporter cell line” value (“EC50 (nM)” below) [5] is reported as 1.02 nM.

B4: hexameric GITRL FP (Coronin 1a wt) (Fc fusion, not shown: a dimerising Fc or GST; small tags and cut ends)
chain (part 1 of 2): VSRLEEEMRKLQATVQELQKRLDRLEETVQAK
chain (part 2 of 2): LQLETAKEPCMAKFGPLPSKWQMASSEPPCVNKVSDWKLEILQNGLYLIYGQVAPNANYNDVAPFEVRLYKNKDMIQTLTNKSKIQNVGGTYELHVGDTIDLIFNSEHQVLKNNTYWGIILLANPQFIS
For B4, the IC50 [4] was 0.61 nM and the “EC50 (nM)” value [5] was 0.95 nM.

B5: hexameric GITRL FP (DMPK wt) (Fc fusion, not shown: a dimerising Fc or GST; small tags and cut ends)
chain (part 1 of 2): EAEAEVTLRELQEALEEEVLTRQSLSREMEAIRTDNQNFASQLREAEARNRDLEAHVRQLQERMELLQAE
chain (part 2 of 2): LQLETAKEPCMAKFGPLPSKWQMASSEPPCVNKVSDWKLEILQNGLYLIYGQVAPNANYNDVAPFEVRLYKNKDMIQTLTNKSKIQNVGGTYELHVGDTIDLIFNSEHQVLKNNTYWGIILLANPQFIS
In the case of B5, the IC50 [4] is reported as 2.73 nM and the “EC50 (nM)” value [5] is reported as 1.37 nM.

B6: hexameric GITRL FP (Matrilin 1 wt) (Fc fusion, not shown: a dimerising Fc or GST; small tags and cut ends)
chain (part 1 of 2): CACESLVKFQAKVEGLLQALTRKLEAVSKRLAILENTVV
chain (part 2 of 2): LQLETAKEPCMAKFGPLPSKWQMASSEPPCVNKVSDWKLEILQNGLYLIYGQVAPNANYNDVAPFEVRLYKNKDMIQTLTNKSKIQNVGGTYELHVGDTIDLIFNSEHQVLKNNTYWGIILLANPQFIS
For B6, the IC50 [4] was 1.36 nM and the “EC50 (nM)” value [5] was 1.12 nM.

B7: hGITRL FP N129A (Fc fusion)
chain: LQLETAKEPCMAKFGPLPSKWQMASSEPPCVNKVSDWKLEILQNGLYLIYGQVAPNANYNDVAPFEVRLYKNKDMIQTLTAKSKIQNVGGTYELHVGDTIDLIFNSEHQVLKNNTYWGIILLANPQFIS
notes: also called N129A mutated hGITRL FP; not shown: detection with anti-FLAG antibody implies a FLAG e
B7 showed a Kd [1] of 3.77 nM.

B8: hGITRL FP N92D (Fc fusion, not shown: a dimerising Fc or GST)
chain: LQLETAKEPCMAKFGPLPSKWQMASSEPPCVNKVSDWKLEILQDGLYLIYGQVAPNANYNDVAPFEVRLYKNKDMIQTLTNKSKIQNVGGTYELHVGDTIDLIFNSEHQVLKNNTYWGIILLANPQFIS
Work on B8 yielded an IC50 [2] of 0.587 nM.

B9: hGITRL FP N129A/N161D (Fc fusion)
chain: LQLETAKEPCMAKFGPLPSKWQMASSEPPCVNKVSDWKLEILQNGLYLIYGQVAPNANYNDVAPFEVRLYKNKDMIQTLTAKSKIQNVGGTYELHVGDTIDLIFNSEHQVLKDNTYWGIILLANPQFIS
notes: as for B1
B9 was tested, and the Kd [1] was 11.8 nM.

B10: hexameric GITRL FP (Langerin variant) (Fc fusion, not shown: a dimerising Fc or GST; small tags and cut ends)
chain (part 1 of 2): ISALNTKIRAIQGSIENMSKLIKRQNDIIQVVS
chain (part 2 of 2): LQLETAKEPCMAKFGPLPSKWQMASSEPPCVNKVSDWKLEILQNGLYLIYGQVAPNANYNDVAPFEVRLYKNKDMIQTLTNKSKIQNVGGTYELHVGDTIDLIFNSEHQVLKNNTYWGIILLANPQFIS
With B10 the IC50 [4] was 2 nM and the “EC50 (nM)” value [5] was 0.75 nM.

B11: hexameric GITRL FP (Matrilin 1 variant) (Fc fusion, not shown: a dimerising Fc or GST; small tags and cut ends)
chain (part 1 of 2): CACESLVKFQAKVEGLIQALTRKLEAVSKRIAILENTVV
chain (part 2 of 2): LQLETAKEPCMAKFGPLPSKWQMASSEPPCVNKVSDWKLEILQNGLYLIYGQVAPNANYNDVAPFEVRLYKNKDMIQTLTNKSKIQNVGGTYELHVGDTIDLIFNSEHQVLKNNTYWGIILLANPQFIS
In the case of B11, the IC50 [4] is reported as 0.83 nM and the “EC50 (nM)” value [5] is reported as 0.9 nM.

B12: hGITRL FP N104D (Fc fusion, not shown: a dimerising Fc or GST)
chain: LQLETAKEPCMAKFGPLPSKWQMASSEPPCVNKVSDWKLEILQNGLYLIYGQVAPDANYNDVAPFEVRLYKNKDMIQTLTNKSKIQNVGGTYELHVGDTIDLIFNSEHQVLKNNTYWGIILLANPQFIS
notes: also called N104D GITRL FP
B12 showed an IC50 [2] of 0.529 nM.

B13: hexameric GITRL FP (Coronin 1a variant) (Fc fusion, not shown: a dimerising Fc or GST; small tags and cut ends)
chain (part 1 of 2): ISRIEEEIRKINATVQELQKRIDRLEETVQAK
chain (part 2 of 2): LQLETAKEPCMAKFGPLPSKWQMASSEPPCVNKVSDWKLEILQNGLYLIYGQVAPNANYNDVAPFEVRLYKNKDMIQTLTNKSKIQNVGGTYELHVGDTIDLIFNSEHQVLKNNTYWGIILLANPQFIS
In the case of B13, the IC50 [4] is reported as 1.44 nM and the “EC50 (nM)” value [5] is reported as 0.74 nM.

B14: hexameric GITRL FP (DMPK variant) (Fc fusion, not shown: a dimerising Fc or GST; small tags and cut ends)
chain (part 1 of 2): IAEIEVTIRELQEAIEEEVLTRQSLSREIEAIRTDIQNIASQLREIEARIRDLEAHVRQLQERMELLQAE
chain (part 2 of 2): LQLETAKEPCMAKFGPLPSKWQMASSEPPCVNKVSDWKLEILQNGLYLIYGQVAPNANYNDVAPFEVRLYKNKDMIQTLTNKSKIQNVGGTYELHVGDTIDLIFNSEHQVLKNNTYWGIILLANPQFIS
B14 was tested, and the IC50 [4] was 2.43 nM and the “EC50 (nM)” value [5] was 1.39 nM.

B15: mOX40L-FP mIgG1 (Fc fusion)
chain: VPRDCGCKPCICTVPEVSSVFIFPPKPKDVLTITLTPKVTCVVVDISKDDPEVQFSWFVDDVEVHTAQTQPREEQFNSTFRSVSELPIMHQDWLNGKEFKCRVNSAAFPAPIEKTISKTKGRPKAPQVYTIPPPKEQMAKDKVSLTCMITDFFPEDITVEWQWNGQPAENYKNTQPIMDTDGSYFVYSKLNVQKSNWEAGNTFTCSVLHEGLHNHHTEKSLSHSPGKRLDQDKIEALSNKVQQLERSIGLKDLAMADLEQKVSELEVSTSSPAKDPPIQRLRGAVTRCEDGQLFISSYKNEYQTMEVQNNSVVIKCDGLYIIYLKGSFFQEVKIDLHFREDHNPISIPMLNDGRRIVFTVVASLAFKDKVYLTVNAPDTLCEHLQINDGELIVVQLTPGYCAPEGSYHSTVNQVPL
notes: also called murine OX40L FP mIgG1; Mouse OX40L FP mIgG1
B15: no binding [6]; binds [7].
